This is an account of results in patent CN117700537A.

The target in this assay is 非洲马瘟病毒VP7重组蛋白 (AHSV VP7重组蛋白, 原核表达) (African horse sickness virus (非洲马瘟病毒)). The assay is described as follows: indirect ELISA, negative control on coated VP7 recombinant protein (0.5 μg/mL). On the technique in general: In an ELISA, binding on a coated surface is turned into a signal by an enzyme label.

For the substance 阴性对照 (阴性抗体, 表2) (antibody), the OD450 turned out to be 0.0655 OD450.
